The results in this text go back to the RNAGym collection of RNA variant scans (doi:10.1073/pnas.2313332121).

First the molecules themselves.
B1: TPR t1 (parent)
chain: GACCAAUCUGCCCUCAGAGCUCGAGAACAUCUUCGGAUGCAGAGGAGGCAGGCUUCGGUGGCGCGAUAGCGCCAACGUCCUCAACCUCCAAUGCAUCCCACCACAUGAUGAUGCCUGAAGAGCCUUGGUUUUUUG

The data set covers variants of B1. Description: polymerase ribozyme fitness, log enrichment relative to wild type (log ratio); higher = more active; in vitro selection for triplet polymerase activity. The procedure, abridged: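 Frozen incubation at −7 °C formed the core of a single, triplicate in vitro selection round applied to PCR-built, transcribed mutant libraries of each subunit of a heterodimeric triplet polymerase ribozyme. Extended constructs were gel-excised, captured with streptavidin beads and amplified by RT-PCR, and input and output libraries were Illumina-sequenced with a filter of ≥10 input reads and ≥1 read per output. Fitness is the logarithm of genotype enrichment relative to wild-type enrichment, with inverse-variance-weighted replicate averaging, and the logarithm is base 2.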
Consider G71A U87G, for which the “polymerase ribozyme fitness (log ratio)” value is -0.439. In the case of C3G C88G, the “polymerase ribozyme fitness (log ratio)” value was -2.34. For G52U U59G C88A C101U the value was -1.76; for C53U C85G, -2.01; for A27C C53A C94G, -4.6. For U9A C72G the value was -0.0842.

For the variant G71C A83U, the “polymerase ribozyme fitness (log ratio)” value was -1.19. In the case of A43C U92G A111C C114A, the “polymerase ribozyme fitness (log ratio)” value is -6.46. For G36A G113U A119U the value was -4.19; for U21C A37U, 0.0886. For C12U G17C C49U C82G C94U C99G C123A the value was -7.59; for G69U A103C U131C, -1.05; for G48A U54G G110C, -4.76. For the variant G60A G113U, the “polymerase ribozyme fitness (log ratio)” value is -1.94. In the case of A46U G57A C79G it was -2.59. For C40U G48C the value was -1.59; for A111C G113U, -3.68.

As to A5C G51A U78C G113U U133G, the “polymerase ribozyme fitness (log ratio)” value was -6.24.

For G44U G63U, the “polymerase ribozyme fitness (log ratio)” value was -2.03.

Regarding C99U U134C, the “polymerase ribozyme fitness (log ratio)” value is -4.03.

With G42C A66G C79U A121C U133G, the “polymerase ribozyme fitness (log ratio)” value is -1.36.

As to C40G A41U C70U C124G, the “polymerase ribozyme fitness (log ratio)” value is -3.14. With C56G G77C, the “polymerase ribozyme fitness (log ratio)” value was -0.126. In the case of G10C C64U C79U A105G it was -3.38; in that of U9G G35U A111U, -6.59. In the case of U9G G10A U14G A46G G48A A66G C70U it was -4.44; in that of G51A G52A C101U, -3.92. In the case of A27U G77U U78G A111C it was -6.32; in that of G48U C56G C101U C114G, -4.75; in that of C94U A100G G120U, -3.95. For C11G C123U, the “polymerase ribozyme fitness (log ratio)” value came out at 0.785. Take A5U A43G G44A G52C G63C C124U G128U: the “polymerase ribozyme fitness (log ratio)” value was -4.22. In the case of U9A C73U it was 0.98; in that of U55A C80A C86G C124G, -4.35. For C8G A46U A91U G117C the value was -2.28; for A50C C70U A105U, -3.71. Consider G42C U55A G63U C101U, for which the “polymerase ribozyme fitness (log ratio)” value was -3.41. In the case of G57C G63A G69U it was -1.39.

Consider C8U A29U A37U U116C, for which the “polymerase ribozyme fitness (log ratio)” value was -2.24. In the case of C31A C88G it was -4.98; in that of C4A G45A G52C, -2.98. In the case of C85G C115G U132A it was -2.4; in that of U81G G110A, -6.43.

With G17U C62G, the “polymerase ribozyme fitness (log ratio)” value was -3.93. In the case of G120U U131A it was -1.19; in that of A16G C70U C76A, -2.84. For C8G C28G the value was -2.05. With C56A G127U U129A U130C, the “polymerase ribozyme fitness (log ratio)” value is -1.7. For A111U the value was -2.62.

With C11A G69U C97A C101A C104A, the “polymerase ribozyme fitness (log ratio)” value is -3.94. For C88U C89A C115U G117C U126A the value was -3.5. In the case of C15U C28U G44U C62U U87C U106C it was -5.37. For A27G A29C G36A A46C C72G U106C U112G U116A the value was -7.34; for G36A G61C, -2.63; for C72A C82A U96G A100U C115A, -3.23. C13A G63A A74C G128A: the “polymerase ribozyme fitness (log ratio)” value was -5.18. Regarding C13A G48A U96A, the “polymerase ribozyme fitness (log ratio)” value is -2.1. In the case of A29G A37U G61U it was -1.98. Consider A74G C114G, for which the “polymerase ribozyme fitness (log ratio)” value is -2.02.

In the case of C8U C115U G117A, the “polymerase ribozyme fitness (log ratio)” value was -0.753. In the case of C8A A50C C62A C82A C85A C88U C89G A121U it was -3.62. For A27U A43U the value was -5.8. Take C34A U55C G60A U129G: the “polymerase ribozyme fitness (log ratio)” value is -4.44. For C11G C15G G47C U116C the value was -2.52. For C13U A46U U130G the value was -2; for U92A C114U, -3.08; for G51A G120U, -2.59. In the case of U78C U132C it was -0.13; in that of A16U G57U, -1.91; in that of C49G A90U G117A, -3.8. U9A A37C G63A: the “polymerase ribozyme fitness (log ratio)” value is -0.704. As for C86G U126C, the “polymerase ribozyme fitness (log ratio)” value was -1.74. For C34A G117U the value was -6.2; for U7C G93A, -1.65. For C13G C94A C101G C123G, the “polymerase ribozyme fitness (log ratio)” value was -1.76. For G45U G60A C82G C85G G117A the value was -3.09; for C53U G110C, -3.51; for C13G C28G U96A, -4.5. On to U9G C72A A95G, for which the “polymerase ribozyme fitness (log ratio)” value turned out to be 0.389. Regarding C15U C40A G60C, the “polymerase ribozyme fitness (log ratio)” value is -2.3. In the case of G47C A66U A119U A121U it was -0.0171. For C11G A41U G71C A90G G110U G135A the value was -5.24; for C3U C53A C72G, -1.22.
